The results in this text go back to patent US20240207432A1 (BIOSION, published 2024).

The target in test [1] is T1, human TROP2-his protein (human, UniProt P09758 27-274).
T1 construct: Biotin-labelled in the ELISAs, unlabelled analyte in Biacore; also called biotin-labeled human TROP2-his protein; biotin human Trop2-his
T1 sequence: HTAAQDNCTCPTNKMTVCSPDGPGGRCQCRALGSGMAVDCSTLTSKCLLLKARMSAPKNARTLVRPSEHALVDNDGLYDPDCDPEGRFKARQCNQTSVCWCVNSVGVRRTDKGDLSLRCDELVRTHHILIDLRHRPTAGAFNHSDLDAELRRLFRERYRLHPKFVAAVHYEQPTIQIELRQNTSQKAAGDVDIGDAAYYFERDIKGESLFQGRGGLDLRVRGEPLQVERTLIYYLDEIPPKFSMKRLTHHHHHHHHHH
The test is described as follows: SPR Biacore T200, mAb captured on anti-mouse IgG CM5 chip, TROP2-his analyte. The procedure: (§1) Un-reacted moieties on the chip (biosensor) surface were blocked with ethanolamine. […] The antigen-antibody association kinetics was followed for 2 minutes and the dissociation kinetics was followed for 10 minutes. The association and dissociation curves were fit to a 1:1 Langmuir binding model using BIAcore evaluation software.

In test [2] the target is T2, cynomolgus TROP2-his protein (cynomolgus monkey, UniProt P09758 27-272 (human entry), limits assumed).
T2 construct: no cleavage site is stated; also called Cynomolgus monkey TROP2-his protein; monkey TROP2
T2 chain: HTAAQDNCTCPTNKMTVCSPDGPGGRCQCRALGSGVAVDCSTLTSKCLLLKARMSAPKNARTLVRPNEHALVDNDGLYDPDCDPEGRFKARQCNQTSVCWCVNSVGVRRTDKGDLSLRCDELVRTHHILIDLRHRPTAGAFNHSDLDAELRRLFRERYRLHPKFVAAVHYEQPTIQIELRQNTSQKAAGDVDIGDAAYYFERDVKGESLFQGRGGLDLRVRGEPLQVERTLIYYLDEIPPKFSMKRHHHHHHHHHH
Described as above. The procedure: as §1

The target of test [3] is T1, human TROP2-his protein. The test is described as follows: competitive ELISA: mouse A1H3C5H8E12 coated at 2 ug/mL, antibody premixed with biotin human TROP2-his; blocked: binding of TROP2-his to coated A1H3C5H8E12. The procedure: The mouse anti-TROP2 antibodies were tested for epitope binding in a competitive ELISA assay. […] ELISA plates were washed once with wash buffer (PBS+0.05% v/v Tween-20, PBST) and then blocked with 200 μl blocking buffer (5% w/v non-fatty milk in PBST) for 2 hours at 37° C. While blocking, the anti-TROP2 antibodies or controls were diluted with biotin labeled human TROP2-his protein (SEQ ID NO: 67, 34 ng/mL in 2.5% wA non-fatty milk in PBST), starting at 80 nM with a 5-fold serial dilution, and incubated at room temperature for 40 minutes. After plate washing for 4 times, the antibody/TROP2-his protein mixtures were added to the antibody coated plates, 100 μl per well. After incubation at 37° C. for 40 minutes, plates were washed 4 times again using wash buffer. Then the plates were added and incubated with 100 μl Peroxidase Streptavidin (1:10000 dilution in PBST buffer. Jackson Immunoresearch, Cat #016-030-084) for 40 minutes at 37° C. Plates were washed again using wash buffer. Finally, TMB was added and the reaction was stopped using 1M H₂SO₄. The absorbance of each well was read on a microplate reader using dual wavelength mode with 450 nm for TMB and 630 nm as the reference wavelength, and the OD (450-630) values were plotted against antibody concentration. Data was analyzed using Graphpad Prism software and IC₅₀ values were reported.
(In general: An ELISA detects its analyte on a solid surface through an enzyme-linked reagent.)

Test [4] deals with T1, human TROP2-his protein. The test is described as follows: capture ELISA, antibody captured on anti-human IgG Fc coat, biotin human TROP2-his in solution, OD(450-630). As for the experimental part: Plates were washed once with wash buffer (PBS+0.05% v/v Tween-20, PBST) and then blocked with 200 μl/well blocking buffer (5% w/v non-fatty milk in PBST) for 2 hours at 37° C. […] Plates containing captured anti-TROP2 antibodies were incubated with biotin-labeled human TROP2-his protein (prepared in house, SEQ ID NO: 67, 56.7 ng/mL in 2.5% w/v non-fatty milk in PBST, 100 μl/well) for 40 minutes at 37° C., washed 4 times, and incubated with streptavidin conjugated HRP (1:10000 dilution in PBST, Jackson Immuno Research, Cat #016-030-084, 100 μl/well) for 40 minutes at 37° C. After a final wash, plates were incubated with 100 μl/well ELISA substrate TMB (Innoreagents, Cat #TMB-S-002) at room temperature. The reaction was stopped in 3-10 minutes at room temperature with 50 μl/well 1M H₂SO₄, and the absorbance of each well was read on a microplate reader using dual wavelength mode with 450 nm for TMB and 630 nm as the reference wavelength. The OD (450-630) values were plotted against antibody concentration. Data was analyzed using Graphpad Prism software and EC₅₀ values were reported.
For the Capture ELISA, AffiniPure F(ab′)₂ Fragment Goat Anti-Human IgG, Fcγ fragment specific (Jackson Immunoresearch, Cat #109-006-008) was used instead of AffiniPure Goat Anti-Mouse IgG, Fcγ fragment specific, 100 μl/well.

For test [5], the target named is T2, cynomolgus TROP2-his protein. The test is described as follows: indirect ELISA, cynomolgus TROP2-his coated, OD(450-630).

B1: mouse antibody A1E11A12D1 (antibody, V domains shown)
VH: QVQLQQSGAELARPGASVKLSCMASGYTFTTYGISWVRQRTGQGLEWIGQIYPGSDYSYCDEDFKGKATLTADKSSSTAYMQLSSLTSEDSAVYFCARASYFDYWGQGTTLTVSS
VL: DILLTQSPAILSVSPGERVSFSCRASQTIGTAIHWYQQRANGSPRLLIKYASESISGIPSRFSGSGSGTDFALSINTVESEDFAYYYCQQSNNWPFTFGGGTKLEIR
notes: Mouse monoclonal IgG purified from hybridoma supernatant
Take B1: in the test with human TROP2-his protein [1], the Kd (in general, the free concentration of one partner at which half of the binding sites on the other are occupied at equilibrium, for simple one-to-one binding) was found to be 0.154 nM; the off-rate (koff) (in general, a measure of how fast the partners let go of each other) is 8.09e-05 s⁻¹; the association rate constant (kon) (in general, a measure of how fast the partners come together) came out at 525000 M⁻¹ s⁻¹. Also, in test [2], the Kd was found to be 0.0563 nM, the koff was found to be 3.82e-05 s⁻¹ and the on-rate (kon) was 678000 M⁻¹ s⁻¹. For the same molecule, the IC50 (commonly the concentration needed to halve the response being measured) with human TROP2-his protein [3] was found to be 0.933 nM.

B2: mouse antibody A1H3C5H8E12 (antibody, V domains shown)
VH: QVQLQQSGAELVRPGTSVKMSCKAAGYTFTNYWIDWVKQRPGHGLEWIGNIFPGGFYTNYNEKFKGKATLTADTSSSTAYMQLSSLTSEDSAIYYCARGGVFDYWGQGTTLTVSS
VL: DILLTQSPAILSVSPGERVSFSCRASQSIGTSIHWYQQRTNGSPRLLIKYASESISGIPSRFSGSGSGTDFTLSINSVESEDIADYYCQQSNSWPYTFGGGTKLEIK
notes: as for B1
With B2, in the test with human TROP2-his protein [1], binding was characterised by a dissociation constant (Kd) of 1.81 nM, the koff came to 0.000961 s⁻¹ and the association rate constant (kon) stood at 531000 M⁻¹ s⁻¹. In test [2], this molecule returned a Kd of 1.12 nM, an off-rate constant (koff) of 0.000758 s⁻¹ and an on-rate (kon) of 674000 M⁻¹ s⁻¹.

B3: benchmark (in house prepared sacituzumab) (antibody, human IgG1, kappa, V domains shown)
VH: SVQLQQSGSELKKPGASVKVSCKASGYTFTNYGMNWVKQAPGQGLKWMGWINTYTGEPTYTDDFKGRFAFSLDTSVSTAYLQISSLKADDTAVYFCARGGFGSSYWYFDVWGQGSLVTVSS
VL: DIQLTQSPSSLSASVGDRVSITCKASQDVSIAVAWYQQKPGKAPKLLIYSASYRYTGVPDRFSGSGSGTDFTLTISSLQPEDFAVYYCQQHYITPLTFGAGTKVEIKR
notes: also called BM; BM1
As to B3, the EC50 (usually the concentration at which the effect is half-maximal) with human TROP2-his protein [4] was found to be 0.316 nM; in test [5] it was 0.599 nM.

B4: mouse antibody C1B3B12D2 (antibody, V domains shown)
VH: QVQLQQSGPELVRPGTSVKMSCKAAGYTFTKFWIGWVKQRPGHGLEWIGNIYPGGAYINYNENFKGKATLTADTFSSTAYMQLNSLTSADSAIYYCAREGSSGYWGQGTTLTVSS
VL: DIVMTQSPSSLTVTAGEKVTLSCKCSQSLLNSGTQENYLTWYQQKPGQPPKMLIYWASIREPGVPDRFTGSGSGTDFTLTINNVQAEDLAVYYCQHDYSYPFTFGSGTKLEIK
notes: as for B1
With B4, in the test with human TROP2-his protein [1], binding was characterised by a dissociation constant (Kd) of 0.00136 nM, the dissociation rate constant (koff) was 6.45e-07 s⁻¹ and the kon turned out to be 476000 M⁻¹ s⁻¹. In test [2], this molecule registered a Kd of 0.00186 nM, a koff of 9.44e-07 s⁻¹ and an association rate constant (kon) of 508000 M⁻¹ s⁻¹.

B5: mouse antibody A1E4F7D4 (antibody, V domains shown)
VH: QVQLQQSGAELAKPGTSVKMSCEASGYSFTTHWIHWMKQRPGQGLEWIGTIFPSNAYAVYNQKFRDRAIMTADRSSTTAYIQLTGLTSEDSAVYYCARASYFDYWGQGTTLTVSS
VL: DILLTQSPATLSVSPGERVTFSCRASQNIGTSIHWFQQRTTGSPRLLIKYASESISGIPSRFSGSGSGTDFTLHINSVESEDIAHYYCQHSHSWPFTFGSGTKLEIQ
notes: Mouse monoclonal IgG purified from hybridoma supernatant; also called Mouse A1E4F7D4
In turn, B5 registered a half-maximal effective concentration (EC50) in test [5] of 0.837 nM. The koff is roughly 4.7e-05 s⁻¹ with human TROP2-his protein [1] and roughly 4.54e-05 s⁻¹ in test [2]. The association rate constant (kon) with human TROP2-his protein [1] is 373000 M⁻¹ s⁻¹; in test [2] it was 483000 M⁻¹ s⁻¹. The 50% inhibitory concentration (IC50) with human TROP2-his protein [3] was found to be 0.621 nM.

B6: huA1E4F7D4-V16 (antibody, human IgG1, kappa, V domains shown)
VH: QVQLVQSGAEVKKPGASVKVSCKASGYSFTTHWIHWVRQAPGQGLEWIGTIFPSNAYAVYNQKFRDRATMTADTSISTAYIELSRLRSDDTAVYYCARASYFDYWGQGTTVTVSS
VL: EIVLTQSPATLSLSPGERATLSCRASQNIGTSIHWFQQKPGGAPRLLIKYASESISGIPSRFSGSGSGTDFTLTISSLEPEDFAVYYCQHSHSWPFTFGQGTKLEIKR
notes: Positions of the X residues are given in the claims; also called humanized antibody huA1E4F7D4-V16
As to B6, the figures for the concentration giving a half-maximal response (EC50) (in the test with human TROP2-his protein [4]; in test [5]) were 0.054 nM and 0.611 nM, respectively.
